In the domain aggregation screens of Martell et al. (2025):

Test: soluble fraction after stress (log2 fold change); higher = more stays soluble; pooled small domains, quantitative proteomics
Details: stress: pH 4
Method in brief: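 Pooled custom libraries of small protein domains were stressed at pH 4 and then measured by high-throughput quantitative proteomics. The fold change in the amount of each domain that stays soluble after the acid stress serves as a measure of aggregation propensity. Fold changes are given on a log2 scale, and higher values mean more of the domain stayed soluble.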

Sequence	soluble fraction (log2)
HMNIAAVIGQTGVLQDDLKAGEQGTVKADNKLWTAVLAEGEEAVKKEERVDIVAVEGVKLIVRRNI	-1.14
HMSMEIQEIIRQLREKNDWSQEDMAERVGLSKNGYAKIERGETNLNLERLEQIANLFDLSVIDLIEMS	-1.03
HMKMPNGYGSVYKLSGNRRKPWAARVTDGWVNDTKTKKSKQKYKFIGFYETRKEALLALADYNANP	0.22
HMKFNLWLSEKLKKLGLTQRKLAEQAGVSPATVSRWLSGEFEPDLTNLRKINQVLGVPERELFLQLGL	-0.0282
HMNATLEQLTQREREIAVLMAEGLTNAQIGSRLNVSMASVKAHLSHIFTKLGVDNRVSAAMMVL	-0.0121
HMKQLNKRQDDILSLAEKEGYVSVENLAKTFTVSQQTIRRDINYLSDHEFLVRTHGGAFYSSG	-0.288
HMTEKIVFNIDGQTGRIDKILADFMTGTSRSQIQAWVKDGNLMVNDKAVKSNYKVQDGDLLELTIPEPEQ	-0.378
HMTVDTSELEEMIDDLIKEHPNEWERYSSGEKKVQGFFVGQVMKATSGQADGKAINQILSKRVKS	0.000391
HMYIDANTALLAKRIQAKNGFLPLSDKSTAEEIYAEFGISKKAFKKALGALYKERLVRIGDEGVVWV	0.0176
HMGGSIDITTAPPGAKIYLDADYYGKTPKRLENISAGTYRLHLLHPEKGEVYRSVTLNEKNGTLKIDENLN	0.0705
HMNMRVLSEQPNKKSYQDGNLRLKVFGASFKKSDILNEALNQARVEETGLQIPKLLEVKQIDGQWTIVTE	-0.393
HMKLISVAVMRASDAAEIAGGTDSKTLMYRAGLGLFQSWDWHGKIDIVTGSGNNAGDGYVLALLL	-0.548
HMVMTTVPEVLGMDIRTAASMLTGKNLKYDYDLVESDKPKDEVIEQDQAKGTEVPEGTVVKLKVSKGPA	0.247
HMRTAELEVWDDDELNDVVKLIQNNHNINTLKLRFQENVSFSGLSLIAAVLTKQSIILEIEY	-1.32
HMNIFAHQIGKLRTERHLSQTDVAKRLYVSRQAVSKWENGDAEPSLDNLIALAKLFNVSLDNLITGQ	0.138
HMKARLRRVFQIYYGDAYSIMKALKETFPLQTIVHEPRTNSIVVDTPDEETATKIGDVVSAL	-0.563
HMGHASPGNREALQFALERHQARAAEFAEKAGLSIANASTKFKQLWEQGFLMRNESVADSGGVEFLYQR	-0.0683
HMRLPLYLALAQTLRQEIDAKQYKIGAHLPPEDQLVVKYGVSRHTVRQALQELKNEGLITSKAGIGTIVSS	0.154
HMSHQIIIVAVELDPSTERIVYYLSKNGISINVLFFKVFQHGDEQFLSRVWLIDPSETQTNAALA	-0.424

Sequence	soluble fraction (log2)
HMPEEGPSEDGNSFTAKFKLGSDVQGAMEQADAAAKAGLQDAGKGTGQITSRAQVGGYIYSTATA	0.22
HMNDVHELPYSSFIEMVERGHVISVTVKHINIEFESTKNENYRTIAPQAMTPPYLELLLKNKDSVKVTFLP	-0.516
HMEALNIEQKKVEIINVLLEKGKGKGRLSYKEISDQIDTVELDKDQMDELYETLMTNGIEIV	-1.43
HMETFGLSQRELQILSQLHKGQPLKEFAASLFITESTLKTHLSAIYRKMSVKNRVQAIEKAKQSGL	-0.273
HMARAGKLAQDMAVWTKETMLNTERNFISLRHFKRELLRRTLAPGESEQTVRAMEEAGYIQVKDGLVFPIK	-0.511
HMVQDDDPNSVAKFIDQVIESNPEQVEQYRSGKEKVFNFFLGQTMRLSKGKANPDLVSELLKEKLS	-0.00692
HMVAPKTEEQQKMFLESIVTKRQAETLIEKYPNIVQDIIDGTDNVDLANLKGIGEHTYNLIKEKVLSNY	-0.159
HMDTIYPFNPNFIDDYKGYVLGLNTNEIDRLLKYRSKGNWINSAEDFKKVTGIDDALLNKLSKSFKFPDWL	-0.991
HMGFVATRSRKFLPFSEARAITRGLGFSNQKDYKEWIKGNGNELLLPFNPWRTYGDSGWKGWKDFLGTDKA	0.0101
HMGAGKVVDGVTYDFVFDVDVADGQPPLRLPYNRGEDVYQAAERFILRNELPATYREQIVNFIVQNTPG	-1.79
HMSDSISLTLNGDLRRFRAHATIADLVRDIGLDPVKVAVERNLEIVSRSTLEDVVLADGDRLEIVHFV	-2.67
HMDFGMPEELQKKLDKMPALKAAFEALTPGRQRGYIFYFSQPKQSKTRELRIEKSIEQIMNGKGLND	0.199
HMGNWEQQLRSWADGELATGKQDILTTAVPAFERALIETALSHTNGRKRDAAELLGWGRNTLTRKLKELGM	-0.46
HMGFSLEQFGTDPDLKKIVENAFERIITASEGRIFKSDFSSNNSALPLEIFSFLIAVILLKLSGMN	-0.489
HMVITEQTVTVKYLYEDDTEAAPEHSETHKTGETFEIESPKIDGFTPDYELITGTIANDDLVYIVRYKTTP	-0.526
HMEHETTQLELNAPGQRLDAALALALPDTSRAQIQQWIKQGLVTDQAGTALLQASLKLKSPLNVVLQRPI	0.0662
HMGVRVEVDAVTPPGAMASGSVVFSDGESKKWSVDQFGRLAMTGGAPDYKPSDQDVMEFQQQLEQSL	-0.57
HMISTVFYVDVKGEVHHPGVYQMKAENRVKDLIEAAGGFTPLADDQKLNLAQLLEDQMVIVVPKKGEEV	-0.221
